The results in this text go back to US8071348B2, “Protein tyrosine phosphatase substrate-trapping double mutant and uses thereof” (Albert Einstein College of Medicine of Yeshiva University, priority 2002, dated 2011).

For one data set, the system named is EGF receptor. As to the kind of experiment: Substrate pull-down: anti-HA immunoprecipitation of PTP1B forms from EGF-treated COS1 cells, anti-pTyr/anti-EGFR blot. In kind it is cell-based, Monkey. On the procedure: FIG. 5 illustrates immunoprecipitation (IP) and Western blots (WB) of the phospho-EGF receptor, and other less abundant PTP1B substrates, by the PTP1B substrate-trapping mutants. Wild-type PTP1B, D181A, D181A/Q262A, D181A/C215S, C215S, or blank vector (pJ3H) was used to transfect COS1 cells (4 μg plasmid/60 mm dish). The cells were maintained at 37° C. for 44-48 h. Twenty minutes before harvesting the cells, 20 ng/ml EGF was added to each dish. The PTP1B proteins were precipitated from the cell lysates using anti-hemagglutinin (anti-HA) antibody-conjugated agarose beads from the cell lysates (500 μg total protein) at 4° C. overnight. The beads were washed 3 times with the lysis buffer, mixed with 2×SDS sample buffer, and then boiled for 5 min. The immunocomplexes were resolved by SDS-PAGE, and transferred onto a nitrocellulose membrane. The membrane was probed with anti-pTyr HRP-conjugated antibody (lower panel). The membrane was then stripped and reblotted with anti-EGFR rabbit polyclonal antibody (middle panel). Thereafter, the membrane was further stripped, and re-probed with anti-HA HRP conjugate (upper panel).
The hemagglutinin-tagged (HA-tagged) full-length human wild-type PTP1B in pJ3H expression vector was a gift from Dr. Chemoff (30). The HA-tagged PTP1B mutants, C215S, D181A, D181A/C215S, and D181A/Q262A, were generated by PCR reactions, according to the standard procedure of the Quick-Change™ site-directed mutagenesis kit (Stratagene), using pJ3H-HA-PTP1B as a template. All mutations were verified by DNA sequencing.
Monkey kidney COS1 cells (ATCC: CRL-1650) were maintained in Dulbecco's modified Eagle's minimum essential medium (DMEM), supplemented with 10% fetal bovine serum (Life Technologies, Inc.), penicillin (50 units/ml), streptomycin (50 μg/ml), and L-glutamine (2 mM) under a humidified atmosphere containing 5% CO2. […] The efficiency of transfection, as assessed by 5-bromo-4-chloro-3-indolyl-β-D galactoside (X-Gal) staining of pCMV-β-gal-transfected (β-Gal staining kit, Invitrogen) COS cells, was 25%. […]

Data set [1] has as its target T1, EGFR 988-998 peptide DADEpYLIPQQG.
T1 chain: DADEXLIPQQG

[ ]: non-standard residue; d: D form. F2Pmp = N[C@@H](Cc1ccc(C(F)(F)P(=O)(O)O)cc1)C(=O)O

B1: PTP1B/D181A/Q262A, catalytic domain (residues 1 to 321) (enzyme, human, UniProt P18031 1-321, looked up)
chain: MEMEKEFEQIDKSGSWAAIYQDIRHEASDFPCRVAKLPKNKNRNRYRDVSPFDHSRIKLHQEDNDYINASLIKMEEAQRSYILTQGPLPNTCGHFWEMVWEQKSRGVVMLNRVMEKGSLKCAQYWPQKEEKEMIFEDTNLKLTLISEDIKSYYTVRQLELENLTTQETREILHFHYTTWPAFGVPESPASFLNFLFKVRESGSLSPEHGPVVVHCSAGIGRSGTFCLADTCLLLMDKRKDPSSVDIKKVLLEMRKFRMGLIATADQLRFSYLAVIEGAKFIMGDSSVQDQWKELSHEDLEPPPEHIPPPPRPPKRILEPHN
notes: range 1-321; Used in vitro (ITC, kinetics); also called PTP1B substrate-trapping double mutant
For the molecule B1, the “affinity for EGFR in in vivo substrate-trapping experiments, versus PTP1B/D181A or PTP1B/C215S” value with EGF receptor is “much higher affinity”. Besides, the “quantity of tyrosine-phosphorylated EGF receptor co-precipitated, fold greater than with D181A” value with EGF receptor (EGF 20 ng/ml for 20 min, anti-HA immunoprecipitation (FIG. 5)) is on record as “more than 3 fold”. In addition, in the data set with EGF receptor (anti-HA immunoprecipitation, not visible in D181A or C215S samples (FIG. 5)), the “trapping of other tyrosine phosphorylated proteins (P160, P120, P70, P60)” value is listed as “trapped several novel, less-abundant tyrosine phosphorylated proteins”. Also, the Km (hydrolysis of the EGFR 988-998 peptide, 25 C, pH 7.0) in data set [1] turned out to be 51 µM.
